Data published in US20190002588A1 (NATIONAL UNIVERSITY CORPORATION CHIBA UNIVERSITY, published 2019).

Columns and labels:
human Myl9-His [1] = biological target: T1, human Myl9-His (human, UniProt P24844 2-172, limits assumed); assay: ELISA, human Myl9-His coated, anti-Flag-HRP
T1 construct: Made in E. coli; the GST tag was cleaved with PreScission Protease
T1 sequence: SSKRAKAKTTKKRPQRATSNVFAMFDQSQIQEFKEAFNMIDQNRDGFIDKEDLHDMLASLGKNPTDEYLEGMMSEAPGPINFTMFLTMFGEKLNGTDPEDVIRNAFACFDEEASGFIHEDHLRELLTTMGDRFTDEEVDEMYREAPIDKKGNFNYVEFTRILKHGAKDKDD
Procedure: (§1) Evaluation of binding between human Myl9, Myl12a and Myl12b and human CD69 extracellular region protein was carried out by ELISA. Human Myl3-His, human Myl9-His, human Myl12a-His and human Myl12b-His prepared in Example 5 were coated onto the wells of a 96-well plate (Nunc), respectively. After an overnight incubation at 4° C., the wells were blocked at room temperature for one hour with 1× Block Ace (DS Pharma Biomedical Co., Ltd.). After washing three times with 0.02% Tween 20/PBS, six serial dilutions by three folds of 3× Flag-human CD69 EC protein were made from a concentration of 10 μg/mL by 50 mM NaOAc (pH 5.5)/150 mM NaCl/0.02% Tween 20 and added to the wells. After incubation at room temperature for one and half hour and washing three times with 50 mM NaOAc (pH 5.5)/150 mM NaCl/0.02% Tween 20, horseradish peroxidase-labeled anti-Flag (M2) antibody (SIGMA) was added, and this was incubated at room temperature for one hour. After washing 5 times, TMBZ (3,3′,5,5′-tetramethylbenzidine) solution was added to the wells, and this was incubated for 5-20 minutes at room temperature. An equal amount of reaction quenching solution (2N H₂SO₄) was added to the wells, and absorbance at 450 nm was read with a microplate reader (Thermo Scientific).

human Myl12a-His [2] = biological target: T2, human Myl12a-His (human, UniProt P19105 1-171); assay: ELISA, human Myl12a-His coated, anti-Flag-HRP
T2 construct: Made in E. coli; GST tag cleaved with PreScission Protease; DTT-treated monomer
T2 sequence: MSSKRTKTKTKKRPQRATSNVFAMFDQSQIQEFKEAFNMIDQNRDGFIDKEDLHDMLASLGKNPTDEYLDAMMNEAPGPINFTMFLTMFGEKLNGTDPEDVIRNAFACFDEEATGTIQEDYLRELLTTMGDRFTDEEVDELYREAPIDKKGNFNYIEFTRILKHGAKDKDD
Procedure: as §1

human Myl12b-His [3] = biological target: T3, human Myl12b-His (human, UniProt O14950 1-172); assay: ELISA, human Myl12b-His coated, anti-Flag-HRP
T3 construct: Made in E. coli; GST tag cleaved with PreScission Protease; DTT-treated monomer
T3 sequence: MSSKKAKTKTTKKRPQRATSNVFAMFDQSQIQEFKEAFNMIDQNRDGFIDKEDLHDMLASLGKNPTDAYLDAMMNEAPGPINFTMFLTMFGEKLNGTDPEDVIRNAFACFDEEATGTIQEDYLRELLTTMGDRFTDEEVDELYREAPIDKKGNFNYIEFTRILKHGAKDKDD
Procedure: as §1

human Myl3-His [4] = biological target: T4, human Myl3-His (human, UniProt P08590 2-195, limits assumed); assay: ELISA, human Myl3-His coated, pH 5.5 buffer, anti-Flag-HRP
T4 construct: Made in E. coli; the GST tag was cleaved with PreScission Protease
T4 sequence (P08590 2-195 limits assumed): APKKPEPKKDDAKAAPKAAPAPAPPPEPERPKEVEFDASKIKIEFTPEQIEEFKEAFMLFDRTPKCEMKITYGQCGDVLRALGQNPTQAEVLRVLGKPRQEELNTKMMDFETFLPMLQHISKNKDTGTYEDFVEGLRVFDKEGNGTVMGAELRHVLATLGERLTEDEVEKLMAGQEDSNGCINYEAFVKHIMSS
Procedure: as §1

human Myl3-His [5] = biological target: T4, human Myl3-His; assay: ELISA, human Myl3-His coated, anti-mouse IgG-HRP
Procedure: (§2) The binding ability against mouse/human Myl9 was evaluated following the steps below by ELISA. Mouse Myl3-His, mouse Myl9-His, human Myl3-His, and human Myl9-His were coated onto the wells of a 96-well plate (Nunc). After an overnight incubation at 4° C., the wells were blocked at room temperature for one hour with 1× Block Ace (DS Pharma Biomedical Co., Ltd.). After washing three times with 0.02% Tween 20/PBS, ten serial dilutions by four folds of Antibody A were made from a concentration of 10 μg/mL and added to the wells. After incubation at room temperature for one hour and washing three times, horseradish peroxidase-labeled anti-mouse IgG antibody (Jackson ImmunoResearch Laboratories) was added, and this was incubated at […] temperature for one hour. After washing 5 times, TMBZ (3,3′,5,5′-tetramethylbenzidine) solution was added to the wells, and this was incubated for 5-20 minutes at room temperature. An equal amount of reaction quenching solution (2N H₂SO₄) was added to the wells, and absorbance at 450 nm was read with a microplate reader (PerkinElmer).

human Myl9-His [6] = biological target: T1, human Myl9-His; assay: ELISA, human Myl9-His coated, anti-mouse IgG-HRP
Procedure: as §2

mouse Myl3-His = biological target: T5, mouse Myl3-His (mouse, UniProt P09542 2-204, limits assumed); assay: ELISA, mouse Myl3-His coated, anti-mouse IgG-HRP
T5 construct: Made in E. coli; the GST tag was cleaved with PreScission Protease
T5 sequence (P09542 2-204 limits assumed): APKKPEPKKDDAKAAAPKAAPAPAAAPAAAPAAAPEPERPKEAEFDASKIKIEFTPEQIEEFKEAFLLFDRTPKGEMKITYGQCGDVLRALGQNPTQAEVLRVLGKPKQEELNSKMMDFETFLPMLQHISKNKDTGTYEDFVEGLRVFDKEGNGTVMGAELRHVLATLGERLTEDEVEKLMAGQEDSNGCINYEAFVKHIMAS
Procedure: as §2

mouse Myl9-His = biological target: T6, mouse Myl9-His (mouse, UniProt Q9CQ19 2-172, limits assumed); assay: ELISA, mouse Myl9-His coated, anti-mouse IgG-HRP
T6 construct: Made in E. coli; the GST tag was cleaved with PreScission Protease and leftover vector residues are not described
T6 sequence: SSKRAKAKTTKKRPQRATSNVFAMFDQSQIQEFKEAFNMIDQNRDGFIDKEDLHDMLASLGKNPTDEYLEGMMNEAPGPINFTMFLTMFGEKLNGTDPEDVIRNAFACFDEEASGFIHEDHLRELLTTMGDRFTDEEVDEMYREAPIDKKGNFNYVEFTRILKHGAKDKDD
Procedure: as §2

human Myl12a-His [7] = biological target: T2, human Myl12a-His; assay: ELISA, human Myl12a-His coated, anti-mouse IgG-HRP
Procedure: (§3) The binding ability of Antibody A against mouse/human Myl12a and Myl12b was evaluated following the steps below by ELISA. Mouse Myl3-His, mouse Myl9-His, mouse Myl12a-His, mouse Myl12b-His, human Myl3-His, human Myl9-His, human Myl12a-His, and human Myl12b-His were coated onto the wells of a 96-well plate (Nunc). After an overnight incubation at 4° C., the wells were blocked at room temperature for one hour with 1× Block Ace (DS Pharma Biomedical Co., Ltd.). After washing three times with 0.02% Tween 20/PBS, eleven serial dilutions by four folds of Antibody A were made from a concentration of 10 μg/mL and added to the wells. After incubation at room temperature for one hour and washing three times, horseradish peroxidase-labeled anti-mouse IgG antibody (Jackson ImmunoResearch Laboratories) was added, and this was incubated at room temperature for one hour. After washing 5 times, TMBZ (3,3′,5,5′-tetramethylbenzidine) solution was added to the wells, and this was incubated for 5-20 minutes at room temperature. An equal amount of reaction quenching solution (2N H₂SO₄) was added to the wells, and absorbance at […] was read with a microplate reader (Thermo Scientific).

human Myl12b-His [8] = biological target: T3, human Myl12b-His; assay: ELISA, human Myl12b-His coated, anti-mouse IgG-HRP
Procedure: as §3

mouse Myl12a-His = biological target: T7, mouse Myl12a-His (mouse, UniProt Q3THE2 1-172 at identity 1.00), limits assumed); assay: ELISA, mouse Myl12a-His coated, anti-mouse IgG-HRP
T7 construct: Made in E. coli; GST tag cleaved with PreScission Protease; DTT-treated monomer
T7 chain: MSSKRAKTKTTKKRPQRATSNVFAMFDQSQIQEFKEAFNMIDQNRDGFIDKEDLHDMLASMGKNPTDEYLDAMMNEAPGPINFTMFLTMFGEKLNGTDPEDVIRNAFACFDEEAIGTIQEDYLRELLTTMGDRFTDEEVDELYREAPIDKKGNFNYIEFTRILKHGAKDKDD
Procedure: as §3

mouse Myl12b-His = biological target: T8, mouse Myl12b-His (mouse, UniProt Q3THE2 1-172, limits assumed); assay: ELISA, mouse Myl12b-His coated, anti-mouse IgG-HRP
T8 construct: Made in E. coli; GST tag cleaved with PreScission Protease; DTT-treated monomer
T8 sequence: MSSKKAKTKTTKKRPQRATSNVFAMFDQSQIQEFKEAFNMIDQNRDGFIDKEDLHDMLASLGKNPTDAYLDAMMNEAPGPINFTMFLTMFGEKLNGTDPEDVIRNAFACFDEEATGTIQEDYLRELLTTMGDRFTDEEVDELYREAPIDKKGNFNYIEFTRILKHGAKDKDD
Procedure: as §3

[9] = biological target: T9, mouse/human Myl9 peptide-BSA (mouse and human (common sequence), added C-terminal Cys coupled to maleimide-activated BSA); assay: ELISA, mouse/human Myl9 peptide-BSA coated, hybridoma supernatant
T9 construct: Synthetic peptide conjugated to bovine serum albumin
T9 peptide: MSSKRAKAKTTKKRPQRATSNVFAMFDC
Procedure: ELISA employing mouse/human Myl9 peptide-BSA was carried out according to the following steps. Mouse/human Myl9 peptide-BSA was coated onto the wells of a 96-well plate (Num). After an overnight incubation at 4° C., the wells were blocked at room temperature for one hour with 1× Block Ace (DS Pharma Biomedical Co., Ltd.). After washing three times with 0.02% Tween 20/PBS, the culture supernatant of said fused cells was added to the wells. After incubation at room temperature for one hour and washing three times, horseradish peroxidase-labeled anti-mouse IgG antibody (Jackson ImmunoResearch Laboratories) was added, and this was incubated at room temperature for one hour. After washing 5 times, TMBZ (3,3′,5,5′-tetramethylbenzidine) solution was added to the wells, and this was incubated for 5-20 minutes at room temperature. An equal amount of reaction quenching solution (2N H₂SO₄) was added to the wells, and absorbance at 450 nm was read with a microplate reader (PerkinElmer).

binding result (human Myl9-His [1])	binding result (human Myl12a-His [2])	binding result (human Myl12b-His [3])	binding result (human Myl3-His [4])	binding result (human Myl3-His [5])	binding result (human Myl9-His [6])	binding result (mouse Myl3-His)	binding result (mouse Myl9-His)	binding result (human Myl12a-His [7])	binding result (human Myl12b-His [8])	binding result (mouse Myl12a-His)	binding result (mouse Myl12b-His)	binding result [9]	Binder
binds	binds	binds	no binding (tested: 10 µg/mL)	–	–	–	–	–	–	–	–	–	3× Flag-human CD69 EC protein (receptor, not shown: small tags and cut ends, Made in Expi293F cells and purified on Anti-Flag M2 gel; The dimerized protein was collected by Superdex200 or Superdex75; also called human CD69 extracellular region protein; extracellular region of human CD69) GQYNCPGQYTFSMPSDSHVSSCSEDWVGYQRKCYFISTVKRSWTSAQNACSEHGATLAVIDSEKDMNFLKRYAGREEHWVGLKKEPGHPWKWSNGKEFNNWFNVTGSDKCVFLKNTEVSSMECEKNLYWICNKPYK
–	–	–	–	no binding (tested: 10 µg/mL)	binds	no binding (tested: 10 µg/mL)	binds	binds	binds	binds	binds	binds	mouse anti-mouse/human Myl9 monoclonal antibody (Antibody A) (antibody, V domains shown, Hybridoma antibody purified with Protein A; isotype printed as 'IgG2e, kappa'; also called mAb A; anti-mouse/human Myl9 antibody) VH: QVQLQQSGAEVVRPGASVTLSCKASGYTFTDYEMHWVKQTPVHGLEWIGAIDPETGGTAYNQKFKGKAILTADKSSNTAYMELRSLTSEDSAVYYCTDYDYDGFAYWGQGTLVTVSA VL: DVVMTQTPLSLPVSLGDQASISCRSSQSLVHSNGNTYLHWYLQKPGRSPKLLISKVSNRFSGVPDRFSGSGSGTDFTLKITRVEAEDLGVYFCSQNTHVPPLTFGAGTKLELK
